# Measurements published in patent publication US20220135655A1 (Dana-Farber, published 2022).
# B1: 2G3 (scFv)
# scFv: QVQLVQSGAEVKKPGSSVKVSCKASGGTFRSYAISWVRQAPGQGLEWMGGIMPIFGTANYAQKFQGRVTITADESTTTVYMELSSLRSEDTAVYYCARGAGVSAGPSWPFDVWGQGTLVTVSSGGGSGGGSGGGSGGGSQPGLTQPPSVSKDLRQTATLTCTGNSNNVGKQGATWLQQHQGHPPKLLSYRNNNRPSGISERFSASRSGDTASLTITGLQPEDEADYYCSAWDSSLSVWVFGGGTKLTVL
# B2: 5B9 (scFv)
# scFv: QVQLVQSGAEVKKPGSSVKVSCKASGVTFSSYAISWVRQAPGQGLEWMGGISPMFGTANYAQKFQGRVTITADESTNTAYMELSSLRSEDTAVYYCARGRGYAPDALTNFDVWGQGTLVTVSSGGGSGGGSGGGSGGGSEIVLTQSPDSLAMSLGERATVNCKSSRSLFDSSDNKNYLAWYQKKPGQPPQLLIYWASTRQSGVPDRFSGSGSGTDFTLTISSLQAEDVAVYYCQQYFSSPPIFTFGPGTKVEIK
# B3: 6F3 (scFv)
# scFv: QVQLVQSGAEVKKPGSSVKVSCKASGGPFSSYAISWVRQAPGQGLEWMGGISPMFGTANYAQKFQGRVTITADESTSTVYMELSSLRSEDTAVYYCARGYSYYPGGGGGRNFDYWGQGTLVTVSSGGGSGGGSGGGSGGGSLPVLTQPPSASGTPGQRVTISCSGSSSNIGSNTVNWYQQLPGTAPKLLIYSNNQRPSGVPDRFSGSKSGTSASLAISGLQSEGEADYYCAAWDDSLKGRVFGGGTKVTVL
# B4: 4F5 (scFv)
# scFv: QVQLVQSGAEVKKPGSSVKVSCKASGVTFRSYAISWVRQAPGQGLEWMGGISGIFGTANYAQKFQGRVTITADESTSTAYMELSSLRSEDTAVYYCARSPAYYFGPNMDVWGQGTLVTVSSGGGSGGGSGGGSGGGSQSVLTQPPSVSGAPGQRVTISCTGSSSNIGAGYDVHWYQQLPGTVPKLIIYDNSNRPSGVPARFSGSKSGTSASLAISGLQSEDEAAYYCQSYDSSLSVVVFGGGTKLSVL
# B5: 5A8 (scFv)
# scFv: QVQLVQSGAEVKKPGSSVKVSCKASGGTFSSYAISWVRQAPGQGLEWMGGISPIFGTANYAQKFQGRVTITADESTSTVYMELSSLRSEDTAVYYCARGPGYHPAGASGQFFDLWGQGTLVTVSSGGGSGGGSGGGSGGGSSYELTQPPSVSKDLRQTATLTCTGNSNNVGNQGAAWLQQHQGHPPKLLSYRNNHRPSGISDRSSASRSGDTASLTITGLQPEDEADYYCSAWDSSLSAWVFGGGTKLTVL
# B6: 2H3 (scFv)
# scFv: QVQLVQSGAEVKKPGSSVKVSCKASGGPFSSYAISWVRQAPGQGLEWMGGIIPIFGTANYAQKFQGRVTITADESTSTAYMELSSLRSEDTAVYYCARGTDYSGYRGFDVWGQGTLVTVSSGGGSGGGSGGGSGGGSQTVVTQEPSFSVSPGGTVTLTCALSSGSVSSFNYASWYQQTPGQAPRTLISNTNTRSSGVPDRFSGSILGNKATLTITGAQADDESHYYCALYVGGGISVFGGGTKLTVL
# B7: 2H4 (anti-H1CA0409) (scFv)
# scFv: QVQLVQSGAEVKKPGSSVKVSCKASGVTFSSYAISWVRQAPGQGLEWMGGITPIFGTANYAQKFQGRVTITADQSTSTAYMELSSLRSEDTAVYYCARGGGVFDVWGQGTLVTVSSGGGSGGGSGGGSGGGSSYELTQPPSVSGAPRQRVTISCSGSSSNIGNNAVNWYQQLPGKAPKLLIYYDDMLPSGVSDRFSGSKSGSSASLAISGLQSEDEADYYCAAWDDSLSGPVFGGGTNLTVL
# B8: 9H3 (scFv)
# scFv: QVQLVQSGAEVKKPGSSVKVSCKASGGIFSSYAISWVRQAPGQGLEWMGGISPIFGTANYAQKFQGRVTITADESTNTAYMELSSLRSEDTAVYYCARSGGYYDYGVGYDQWGQGTLVTVSSGGGSGGGSGGGSGGGSQPVLTQPPSASGTPGQRVTISCSGGRSNIGSNTVNWYQQLPGTAPKLLIYSNNHRPSGVPDRFSGSKSGNTASLTISGLQAEDEADYYCQSYDSSVVFGGGTKLTVL
# B9: 4C4 (scFv)
# scFv: QVQLVQSGAEVKKPGSSVKVSCKASGGTFSSYAISWVRQAPGQGLEWMGGISPMFGTANYAQKFQGRVTITADKSTSTAYMELSSLRSEDTAVYYCAREGGYSPGGVDFDYWGQGTLVTVSSGGGSGGGSGGGSGGGSNFMLTQPHSVSESPGKTVTISCTRSSGSIASTYVQWYRQRPGSAPTTVIYEDHQRPSGVPDRFSGSLDSSSNSASLTISGLRTEDAATYYCQSFDASTLVFGGGTKLTVL
# Biological target: A/California/04/2009 (H1CA0409) recombinant HA (influenza A virus A/California/04/2009, UniProt P26140 18-529)
# Experiment: phage display panning (immunotube) against trimeric HA
row,Binder,binding result
1,B1,binds
2,B2,binds
3,B3,binds
4,B4,binds
5,B5,binds
6,B6,binds
7,B7,binds
8,B8,binds
9,B9,binds
